Experimental data from paper PMC9445664, “A transcription factor TaMYB5 modulates leaf rolling in wheat”.

Experiments:
[1] = molecular target: T1, TaMYB5 (GST-TaMYB5) (Triticum aestivum, UniProt A0A3B6ELG7 1-265); test: EMSA; unlabeled N1 competes; LightShift Chemiluminescent EMSA Kit (Thermo); buffer, salt, pH and temperature not stated; details: protein: recombinant; tags: N-terminal GST; label: biotin (labeled probe); blunt
[2] = molecular target: T1, TaMYB5 (GST-TaMYB5); test: competition; EMSA; unlabeled mutant probe against biotin-labeled N1; LightShift Chemiluminescent EMSA Kit (Thermo); buffer, salt, pH and temperature not stated; details: protein: recombinant; tags: N-terminal GST; blunt

T1 sequence (A0A3B6ELG7 entry or part of it): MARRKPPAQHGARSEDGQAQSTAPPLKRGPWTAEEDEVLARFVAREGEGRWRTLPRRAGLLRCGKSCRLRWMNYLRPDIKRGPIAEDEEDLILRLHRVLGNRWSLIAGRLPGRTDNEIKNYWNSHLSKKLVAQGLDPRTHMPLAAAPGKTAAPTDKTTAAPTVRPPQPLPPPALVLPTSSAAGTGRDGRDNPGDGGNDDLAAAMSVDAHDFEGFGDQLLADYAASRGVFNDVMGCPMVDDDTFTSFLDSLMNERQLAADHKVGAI

B1: 3xAC probe (AC box of TaNRL1 promoter) (dsDNA)
DNA 1: AGTCCACCTAACGCCACCTAACGCCACCTAACGCTGTT
DNA 2: AACAGCGTTAGGTGGCGTTAGGTGGCGTTAGGTGGACT
binding result [1]: binds

B2: mutant 3xAC probe (dsDNA)
DNA 1: AGTCCAAATATTGCCAAATATTGCCAAATATTGCTGTT
DNA 2: AACAGCAATATTTGGCAATATTTGGCAATATTTGGACT
binding result [2]: no binding
